Laboratory results as given in patent CN111138536A (REYOUNG (SUZHOU) BIOPHARMACEUTICAL CO LTD, dated 2020).

Molecular target: T1, 人血清白蛋白 (human, UniProt P02768 25-609)
T1 construct: also called HSA; human serum albumin
Assay: SPR (Biacore T200); HSA amine-coupled to CM5 chip, NB4 as analyte

B1: 单域抗体NB4 (VHH)
VHH: QVQLQESGGGSVQAGGSLRLACAASGYTYSSACMAWFRQAPGKEREKVATIYTGGTYPYYADSVKGRFTMSHDNAKNTVYLQMNSLKPEDTGMYYCAADASWGCRLSGSWGAKYNNWGQGTQVTVSS
notes: Camel-derived VHH, expressed in E. coli BL-21 from pET-22 with a C-terminal 6x His tag and purified on a nickel column; also called 抗人血清白蛋白单域抗体
B1 was tested. Which Kd did it give?
The Kd was 0.245 nM.
